Where two headings read alike, the source gives them in different places. Where no end group is shown, it is not given here. [ ]: non-standard residue; d: D form. Aze = O=C(O)[C@@H]1CCN1
What was measured:
Assay in all cases: cell-based or functional assay
[1] = molecular target: EGLN1
[2] = molecular target: EGLN2
[3] = molecular target: EGLN3
[4] = molecular target: EGLN3; remark: listed apart in the source
[5] = molecular target: EGLN1; remark: listed apart in the source
[6] = molecular target: EGLN2; remark: listed apart in the source

Binder | Activity (%)* [1] [%] | Activity (%)* [2] [%] | Activity (%) [3] [%] | Activity (%)* [4] [%] | Activity (%)* [5] [%] | Activity (%)* [6] [%]
DTDLDIEAVA[Aze]YIPADDDFQ [DTDLDIEAVA8YIPADDDFQ] | 6.35 | 1.96 | 18.8 |  |  | 
DTDLDAEAVA[Aze]YIPADDDFQ [DTDLDAEAVA8YIPADDDFQ] | 10 | 3.36 | 17.2 |  |  | 
DTDLDTEALA[Aze]YIPADDDFQ [DTDLDTEALA8YIPADDDFQ] | 11.4 | 8.52 | 80.1 |  |  | 
DTDLDAEAIA[Aze]YIPADDDFQ [DTDLDAEAIA8YIPADDDFQ] | 6.68 | 1.88 | 9.72 |  |  | 
DTDLDVEAIA[Aze]YIPADDDFQ [DTDLDVEAIA8YIPADDDFQ] | 7.96 | 2.81 | 14.8 |  |  | 
DTDLDLEALA[b‑thioproline]YIPADDDFQ [DTDLDLEALA5YIPADDDFQ] | 8.93 | 7.9 | 11.1 |  |  | 
DTDLDTEAFA[Aze]YIPADDDFQ [DTDLDTEAFA8YIPADDDFQ] | 17.4 | 8.9 | 18.7 |  |  | 
DTDLDLEMLAPYIPMDDDFQ [Control peptide DTD20, DTDLDLEMLApYIPMDDDFQ] | 100 | 100 | 119 | 119 | 100 | 100

Reference: US20080113383A1 (FIBRO GEN, published 2008)
